# Laboratory results taken from patent US20180371086A1.
# Molecular target: HIV-1 Env gp120 of virus WITO, on infected cells (HIV-1)
# Test: cell-based or functional assay
substance,measurement,value
PGT-121 (antibody),killing EC50; HIV-infected CEM-NKr-CCR5-LucR CD4 T cells; PBMC donor 4176; virus WITO,> 100 µg/mL
same,killing EC50; HIV-infected CEM-NKr-CCR5-LucR CD4 T cells; PBMC donor 4288; virus WITO,> 100 µg/mL
